# Reference: patent EP4692123A1, “ANTI-BCAM ANTIBODY AND ANTIBODY-DRUG CONJUGATE” (priority 2023, dated 2024)
# “And” between values parts separate entries of the source, which are not always exact repeats. Equal entries are not always repeated.
# T1: human BCAM antigen protein expressed on the cell surface (human, UniProt P50895 32-628)
# T1 construct: whole, on cells; also called human BCAM expressed on the cell surface; BCAM on HEK293FT cells transfected with the 293FT/BCAM plasmid
# T1 sequence (looked up): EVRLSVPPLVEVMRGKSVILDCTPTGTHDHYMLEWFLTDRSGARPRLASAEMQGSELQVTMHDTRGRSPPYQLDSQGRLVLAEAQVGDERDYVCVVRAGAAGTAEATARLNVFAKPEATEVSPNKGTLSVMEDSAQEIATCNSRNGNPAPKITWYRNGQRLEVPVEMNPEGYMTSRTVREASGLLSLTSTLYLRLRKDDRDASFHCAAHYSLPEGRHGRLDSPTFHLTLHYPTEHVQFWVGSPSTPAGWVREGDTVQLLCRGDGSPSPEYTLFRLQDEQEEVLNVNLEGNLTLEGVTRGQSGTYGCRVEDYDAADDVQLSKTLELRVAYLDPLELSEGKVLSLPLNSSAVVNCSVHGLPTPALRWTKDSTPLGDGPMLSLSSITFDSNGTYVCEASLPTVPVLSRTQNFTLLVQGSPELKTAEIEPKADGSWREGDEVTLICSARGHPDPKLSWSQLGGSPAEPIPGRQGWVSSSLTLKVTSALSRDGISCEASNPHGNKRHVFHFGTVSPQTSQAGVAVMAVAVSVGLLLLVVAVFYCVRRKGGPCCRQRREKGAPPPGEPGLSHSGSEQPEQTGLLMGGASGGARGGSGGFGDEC
# T2: human BCAM protein (10238-H08H, SinoBiological, China) (human, UniProt P50895 32-547)
# T2 construct: Bought recombinant protein; also called antigen protein; Lu
# T2 sequence (looked up): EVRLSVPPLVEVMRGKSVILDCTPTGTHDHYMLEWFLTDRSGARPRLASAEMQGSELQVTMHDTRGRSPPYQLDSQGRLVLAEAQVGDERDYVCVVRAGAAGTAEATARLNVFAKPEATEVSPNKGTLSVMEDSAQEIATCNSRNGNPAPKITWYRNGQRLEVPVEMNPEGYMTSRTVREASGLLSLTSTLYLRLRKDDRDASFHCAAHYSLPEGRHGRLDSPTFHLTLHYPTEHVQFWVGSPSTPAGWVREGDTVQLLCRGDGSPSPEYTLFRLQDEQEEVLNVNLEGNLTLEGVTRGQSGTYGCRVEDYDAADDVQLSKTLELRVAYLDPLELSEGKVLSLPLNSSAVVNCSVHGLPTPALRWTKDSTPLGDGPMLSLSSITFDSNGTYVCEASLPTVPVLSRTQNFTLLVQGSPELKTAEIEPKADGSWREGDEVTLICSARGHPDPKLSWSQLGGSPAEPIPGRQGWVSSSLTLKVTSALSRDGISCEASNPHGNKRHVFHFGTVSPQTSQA
# B1: Ab-I antibody (anti-BCAM human IgG4 antibody) (antibody, V domains shown)
# VH: EVQLVESGGGLVKPGGSLRLSCAASGFTFSSYSMNWVRQAPGKGLEWVSSISSSSSYIYYADSVKGRFTISRDNAKNSLYLQMNSLRAEDTAVYYCARIIGGWLGDYWGQGTLVTVSS
# VL: NIQMTQSPSSVSASVGDRVTITCRASQGISSWLAWYQQKPGKAPKLLIYAASSLRSGVPSRFSGSGSGTDFTLTISSLQPEDFATYYCQQANSFPPPTFGGGTKVEIK
# notes: From a human scFv phage library, expressed in ExpiCHO-S
# B2: Ab-II (conjugate)
# VH: B1 VH
# VL: B1 VL
# B3: Ab-II antibody-drug conjugate (antibody, DAR 5.3, V domains shown)
# VH: B1 VH
# VL: B1 VL
# modifications: Compound 1 conjugated through its maleimide group to antibody cysteine side chains after partial reduction of the disulfide bonds; positions not given; DAR 5.3
# notes: Calculated DAR 5.3; also called anti-BCAM antibody-drug conjugate Ab-II
# Experiments:
# [1] = target: T1, human BCAM antigen protein expressed on …; assay: flow cytometry on HEK293FT cells transfected with human BCAM
# [2] = target: T2, human BCAM protein (10238-H08H, …); assay: ELISA, plate coated with human BCAM, anti-human IgG Fc-HRP detection
# [3] = target: T2, human BCAM protein (10238-H08H, …); assay: BLI (Octet R8), human BCAM amine-coupled on AR2G biosensors, antibody in solution, 1:1 model
# DU145 = assay: In vitro anticancer effect, CellTiter-Glo cell viability; type: cell-based, human; details: DU145, 72 hours
# Procedure: (§1) An in vitro experiment was conducted to confirm the anticancer effect of the Ab-II antibody-drug conjugate produced in Example 4 on human cell lines that express high levels of BCAM.
# (§2) 5 x 10^3 cells of SK-BR-3 (human breast cancer cell line, KCLB), OVCAR3 (human ovarian cancer cell line, KCLB), and DU145 (human prostate cancer cell line, KCLB) were seeded into a 96-well plate (3595, Corning, USA). The next day, after confirming cell attachment to the plate, the existing cell culture was removed. Ab-II, produced in Example 4, was serially diluted in cell culture medium from 1 µM in a 5-fold dilution series across 8 points (down to 12.8 pM), and 200 µL was added to each well. On the day of drug treatment, the luminescence of the negative control (0% control, untreated with the drug) was measured. The culture medium was removed, 100 µL of CellTiter-Glo® (Promega, USA) solution was added to each well, and after reacting for 10 minutes at room temperature, the luminescence was measured with a microplate reader (Synergy H1, Biotek, USA). The experimental group treated with the drug and the positive control group (100% control, untreated with the drug) were reacted for 72 hours in a 37°C CO2 incubator. Afterward, the culture medium was removed, 100 µL of CellTiter-Glo® solution was added to each well, and after reacting for 10 minutes at room temperature, the luminescence was measured with the microplate reader. The % cell viability for Ab-II was calculated by substituting into the formula: [(Ab-II treated group) - (0% control group)] / [(100% control group) - (0% control group)]. The GI50 (half-maximal growth inhibition concentration) value of Ab-II for each cell line was calculated using GraphPad Prism (GraphPad software Inc., USA) based on the % cell viability.
# OVCAR3 = assay: as above; type: cell-based, human; details: OVCAR3, 72 hours
# Procedure: as §1, §2
# SK-BR-3 = assay: as above; type: cell-based, human; details: SK-BR-3, 72 hours
# Procedure: as §1, §2
# [4] = target: T2, human BCAM protein (10238-H08H, …); assay: ELISA, plate coated with 7 nM human BCAM, anti-human IgG Fc-HRP detection
molecule,measurement,setting,value
B1,EC50,[1],0.594 nM and 0.086 µg/mL
same,EC50,[2],0.124 nM
same,Kd,[3],0.991 nM
same,koff,[3],0.00216 s⁻¹
same,kon,[3],2.18e+06 M⁻¹ s⁻¹
B2,GI50,DU145,17 nM
same,GI50,OVCAR3,0.35 nM
same,GI50,SK-BR-3,0.21 nM
B3,EC50,[4],0.269 nM
